Laboratory results from patent publication US20220332804A1 (CSL INNOVATION, published 2022).
Residue numbers refer to the chain shown, from its start.

Key:
Test in all cases: SPR; KD relative to WT C2;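 further: biacore SPR at 37 °C, anti-C2 mAbs captured on an anti-human IgG chip, alanine or serine C2 surface mutants tested, KD from 1:1 fit compared with wild-type C2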
human complement C2 = target: T1, human complement C2 (human, UniProt P06681 21-752)
T1 construct: Recombinant full-length human C2 with C-terminal 8x His tag, purified from Expi293F supernatant; also called human C2; huC2
T1 sequence: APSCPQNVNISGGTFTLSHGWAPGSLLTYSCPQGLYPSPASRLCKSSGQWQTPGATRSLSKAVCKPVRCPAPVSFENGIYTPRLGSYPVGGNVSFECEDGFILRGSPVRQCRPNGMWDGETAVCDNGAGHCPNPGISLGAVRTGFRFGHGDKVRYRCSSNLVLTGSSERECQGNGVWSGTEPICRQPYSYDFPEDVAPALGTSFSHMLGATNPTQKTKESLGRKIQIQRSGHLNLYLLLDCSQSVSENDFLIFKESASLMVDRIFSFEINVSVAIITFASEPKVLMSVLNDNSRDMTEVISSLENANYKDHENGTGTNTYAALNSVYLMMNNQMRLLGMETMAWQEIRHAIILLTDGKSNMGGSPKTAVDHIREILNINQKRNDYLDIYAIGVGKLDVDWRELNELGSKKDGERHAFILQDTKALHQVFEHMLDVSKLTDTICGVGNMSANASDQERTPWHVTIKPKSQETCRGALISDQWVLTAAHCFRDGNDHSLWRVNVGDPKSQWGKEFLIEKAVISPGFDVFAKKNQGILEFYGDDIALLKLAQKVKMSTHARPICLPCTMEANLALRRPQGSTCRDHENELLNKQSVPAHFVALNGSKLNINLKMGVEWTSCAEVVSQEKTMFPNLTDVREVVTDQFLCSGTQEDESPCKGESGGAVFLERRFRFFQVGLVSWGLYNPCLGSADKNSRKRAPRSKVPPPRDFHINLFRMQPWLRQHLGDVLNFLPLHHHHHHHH

human C2 V465A = target: T2, human C2 V465A (human, UniProt P06681 21-752)
T2 sequence: T1 sequence with V445A

human C2 E450A = target: T3, human C2 E450A (human, UniProt P06681 21-752)
T3 sequence: T1 sequence with E430A

human C2 N403A = target: T4, human C2 N403A (human, UniProt P06681 21-752)
T4 sequence: T1 sequence with N383A

B1: RF16-214 (antibody, V domains shown)
VH: EVQLLESGGGLVQPGGSLRLSCAASGFTFSWYQMMWVRQAPGKGLEWVSRIYPSGGGTAYADSVKGRFTISRDNSKNTLYLQMNSLRAEDTAVYYCARDAGYGDNWGQGTLVTVSS
VL: QSALTQPPSVSVSPGQTASITCSGDKLGEKYASWYQQKAGQSPVMVIYQDRKRPSGIPERFSGSNSGNTATLTISGTQAMDEADYYCQAWDTRAVVFGGGTKLTVLG
Work on B1 yielded a Fold diff (human complement C2) of 1 fold, a Fold diff (human C2 V465A) of 2 fold and a Fold diff (human C2 E450A) of 20 fold. It also gave a Fold diff (human C2 N403A) of 1 fold.
